# Results from the DeepSol protein solubility set.
# Assay: soluble on expression in E. coli; label from the status in PepcDB or PDB records
row,Sequence,soluble on expression in E. coli
1,MVCKVCGQKAQVEMRSRGLALCREHYLDWFVKETERAIRRHRMLLPGERVLVAVSGGKDSLALWDVLSRLGYQAVGLHIELGIGEYSKRSLEVTQAFARERGLELLVVDLKEAYGFGVPELARLSGRVACSACGLSKRYIINQVAVEEGFRVVATGHNLDDEAAVLFGNLLNPQEETLSRQGPVLPEKPGLAARVKPFYRFSEREVLSYTLLRGIRYLHEECPNAKGAKSLLYKEALNLVERSMPGAKLRFLEGFLEKIRPRLDVGEEVALKECERCGYPTTGAVCAFCRMWDAVYRRAKKRRLLPEEAVFHPKAPVARG,soluble
2,MVDLSRRSMLTGSWRNASNGILPPWARETTYFLAHCLRCDACIQACEADILQRGAGGYPSVDFKRGECSFCYACAQACTESLFLPRHTRAWDLVFTLTENCLARQSVECHRCQDSCEPMAITFRPTLSGIYQPQLDSQACNGCGACVAICPVSAIKAENHHAH,not soluble
3,MVDNIEQQVYELVRPYAGTYLFNIKQVELTPEIDLDTDLSIDELEAEDLMNKFFEELNVERGNFRIETYFPNHPFSWHPFKKTEPVPVPDFTISMLIESAKAGKWLYD,not soluble
4,MVDSYDDSLDGEKSKTQVKRELHALVDLGERLTTLKADVLAKLPLTDALRKALAEAPKHTANIARKRHILFIGKLMRDQDQEAILVLLDQLDASTRQYNERFHNLERWRDRLIAGDDADLEKFVIEYPDADRQQLRSLIRQAQHEVARNKPPATSRKIFKYIRELDELQRGLR,not soluble
5,MVEADHPGKLFIGGLNRETNEKMLKAVFGKHGPISEVLLIKDRTSKSRGFAFITFENPADAKNAAKDMNGTSLHGKAIKVEQAKKPSFQSGGRRRPPASSRNRSPSGSLRSARGSSGGTRGWLPSHEGHLDDGGYTPDLKMSYSRGLIPVKRGPSSRSGGPPPKKSAPSAVARSNSWMGSQGPMSQRRENYGVPPRRATISSWRNDRMSTRHDGYATNDGNHPSCQETRDYAPPSRGYAYRDNGHSNRDEHSSRGYRNHRSSRETRDYAPPSRGHAYRDYGHSRRDESYSRGYRNHRSSRETREYAPPSRGHGYRDYGHSRRHESYSRGYRNHPSSRETRDYAPPHRDYAYRDYGHSSWDEHSSRGYSYHDGYGEALGRDHSEHLSGSSYRDALQRYGTSHGAPPARGPRMSYGGSTCHAYSNTRDRYGRSWESYSSCGDFHYCDREHVCRKDQRNPPSLGRVLPDPREAYGSSSYVASIVDGGESRSEKGDSSRY,soluble
6,MVEKIERKSLAEQVYDQIKAEITSGAWKIGERIPKEADLMTQFGISRNTLREAIRALAHIGLLETKQGDGTFVRNNSELHAIMQKRVRESSVQEILEMRHALDREAVILACERRTDEDLKMLKKYKQLCYLANKDNDVTAFVKADSALHLTIVKAAHNDLLLDMYVNILEEIQFSITSTTEMNPAVNKHNGHATLVSAIEKRDKEGAAHEVTEYITLFKQIAAKNGDNK,not soluble
7,MVEMTRIKHVAFLNPQGNFDPADSYWTEHPDFGGQLVYVKEVSLALAEMGVQVDIITRRIKDENWPEFSGEIDYYQETNKVRIVRIPFGGDKFLPKEELWPYLHEYVNKIINFYREEGKFPQVVTTHYGDGGLAGVLLKNIKGLPFTFTGHSLGAQKMEKLNVNTSNFKEMDERFKFHRRIIAERLTMSYADKIIVSTSQERFGQYSHDLYRGAVNVEDDDKFSVIPPGVNTRVFDGEYGDKIKAKITKYLERDLGSERMELPAIIASSRLDQKKNHYGLVEAYVQNKELQDKANLVLTLRGIENPFEDYSRAGQEEKEILGKIIELIDNNDCRGKVSMFPLNSQQELAGCYAYLASKGSVFALTSFYEPFGLAPVEAMASGLPAVVTRNGGPAEILDGGKYGVLVDPEDPEDIARGLLKAFESEETWSAYQEKGKQRVEERYTWQETARGYLEVIQEIADRKDEEDEGGSLNIPDYFTNPGASNDEKLLDTFNKLWKE,soluble
8,MVFGFLKGVRRRPPLNRACPPIPESKSNESIMSHASRISEHQKAAAAAAATSETTTGDLVIENRNVVDVLHRLDANSNIALPPSSNIRKSKEKKAKMSSTPRSPLMSMANSVKSKLTKITHLGRSSNESSGSSSNIKTSQSFSGIRQPKQIPKRIDQNANRVIKSSSMEVPSTSKVCIPQDPTPLIDDKIEEISEAGLISKSEMAPPKPKEHVCVKLEEDVLVVTKEFDERYPGQKRSASPDVPMVEESQTMSEVDQLPSEQVAETFSEDNVNELDNNANQKTPGPVRRIIQETTTTTITTTTFDSPIPIIEKMEVERPEEAEDVIVIEAPEPVQPPIPSPKKERFTSPERYILLVKTPEALRKHRTLTIGEKDPTEVDTEEKIQYTRLETVKFKEVKEKVKYEEPVPKEKFILTMKTPEAIRRHHTFTIRDKSPEEMNKITKITKSQSDVHVSKRAAKKLVKQASEPERRDLFEEKEDVVPEPKFVIVMKTPECLRRHHTFTIGDRPKSPDYPYIEEGEITEPIATIGPPADRRKKEEAKERKKREWEEYETPPKEKFILTTTTPLAIRKYQTFVVEPKDEKTALPQSASADAVMLAKKGKVQRKNVTSSIQQLSLDEPITSPSRKPVSPEPRHLFVMGGRRSTTPQEDRKVPEPPRNLKLDTDRSQSDHAELLEERKSTMSGDLTSPEEEIPMDTNLTPTTEEVMEAVIVSRRIEGLMTSPIEEEPEGLTSSIRDLSIRSLAKETERPAPVFTPPSPPKENPFHVMTVPKSTLTSSSESAMPMTSSSSSIRAKPNQLPIKKTIQVVDPMHIVELKPEHKSKKEALAAKSLRNAGKMLTPSFLRKEKKGPKKSLYAKTTSSGRQHISEKKEK,not soluble
9,MVFSDQQLFEKVVEILKPFDLSVVDYEEICDRMGESMRLGLQKSTNEKSSIKMFPSYVTKTPNGTETGNFLALDLGGTNYRVLSVTLEGKGKSPRIQERTYCIPAEKMSGSGTELFKYIAETLADFLENNGMKDKKFDLGFTFSFPCVQKGLTHATLVRWTKGFSADGVEGHNVAELLQTELDKRELNVKCVAVVNDTVGTLASCALEDPKCAVGLIVGTGTNVAYIEDSSKVELMDGVKEPEVVINTEWGAFGEKGELDCWRTQFDKSMDIDSLHPGKQLYEKMVSGMYLGELVRHIIVYLVEQKILFRGDLPERLKVRNSLLTRYLTDVERDPAHLLYNTHYMLTDDLHVPVVEPIDNRIVRYACEMVVKRAAYLAGAGIACILRRINRSEVTVGVDGSLYKFHPKFCERMTDMVDKLKPKNTRFCLRLSEDGSGKGAAAIAASCTRQN,soluble
10,MVGINNWSSNLDAYRILQEAQSLTEEPPHFDTAFPIEPESIAPPEHHNHRYVIGQEEHRVRRLAANRNKGRPSARAFGNARNNSTRN,not soluble
11,MVGWWPVGRRQAWHRFFPCHRRPALRCDAHSFFAPGKHIMAHRILTLGEITDGFDVVLSDVWGVLHNGVSAFPDAAVALHEARKAGKTVVLITNSPRPAPGVIAQLRVLGVPDEAYDRIITSGDVTRGLIAEGPKKVFLLGPERDMPLLEGLDVERVGEAEAQSVVCTGFFDDETETPEDYTEMLKGFIARKVPMICANPDLVVERGERIIPCAGAMAAYYEQLGGEVRIAGKPHAPIYEACLAAAKDVRGAFAKDRVLAIGDGMPTDVKGAIASGLNLLYISGGIHAAEYTLNGQTDEALLNAYLKGQGAAPGWWMPRLA,not soluble
12,MVHYYRLSLKSRQKAPKIVNSKYNSILNIALKNFRLCKKHKTKKPVQILALLQEIIPKSYFGTTTNLKRFYKVVEKILTQSSFECIHLSVLHKCYDYDAIPWLQNVEPNLRPKLLLKHNLFLLDNIVKPIIAFYYKPIKTLNGHEIKFIRKEEYISFESKVFHKLKKMKYLVEVQDEVKPRGVLNIIPKQDNFRAIVSIFPDSARKPFFKLLTSKIYKVLEEKYKTSGSLYTCWSEFTQKTQGQIYGIKVDIRDAYGNVKIPVLCKLIQSIPTHLLDSEKKNFIVDHISNQFVAFRRKIYKWNHGLLQGDPLSGCLCELYMAFMDRLYFSNLDKDAFIHRTVDDYFFCSPHPHKVYDFELLIKGVYQVNPTKTRTNLPTHRHPQDEIPYCGKIFNLTTRQVRTLYKLPPNYEIRHKFKLWNFNNQISDDNPARFLQKAMDFPFICNSFTKFEFNTVFNDQRTVFANFYDAMICVAYKFDAAMMALRTSFLVNDFGFIWLVLSSTVRAYASRAFKKIVTYKGGKYRKVTFQCLKSIAWRAFLAVLKRRTEIYKGLIDRIKSREKLTMKFHDGEVDASYFCKLPEKFRFVKINRKASI,soluble
13,MVIATIQAEDHSQQSGTQQETTTDTGGGKNVGYIDAGDWLSYAGTPVNIPSSGSYLIEYRVASQNGGGSLTFEEAGGAPVHGTIAIPATGGWQTWTTIQHTVNLSAGSHQFGIKANAGGWNLNWIRINKTH,soluble
14,MVIHKINKLIATIKTQGIRKAIVKVAAQFKFSYKYYFIYTYNLNSSSPAIAVNEAINTNENDYSIKWWSESDFCKNKTTYLEKRSDMTDSYIENWLPLGHQTVVARSLPNNDIIGDMWLAFDNFPFPSKSKSLRDWAIENHYGYAFMAFVQPSHRGKKILPCLMNEQLKLVKDNNKKGLMALIMPKSKSSHKSFSSMGFKRVGKLHVLQLFSNNHTWISV,not soluble
15,MVIKDPRITRFRKMLAQATNYEQWKAAALELDFLEGNAEWKEDFASDLYHYELIYDRLSNLKQYRQQNDFERLKRALREGLHHDLGNMGNPALYTRSRVGTKHLIEEYITQVCESLDYLCDHPVPGFPVYDKLQFFRDTLTSYGRPTLLLSGGASLGMFHFGVIKALWEKGLLPQVIAGSSIGAIIAGILGIHTDAEIPEMLVPESHNLKAWKWRGLLSAMRGTGLMDQDTLRRCLRENIGDYTFEEAYQRTGRSINISVSPVQAHQKARLLCGYTSPYLLVWSAALASAAVPGIFPPVTLMKKDLNGNSLPYMPRLKFVDGSVVSDLPIERLMHLYDVNFTIVSQTNPHVVPFLTDRGQDEKLSLTNLPSHLLKSEVQFHGQGVFDYLRKRVRPEILRQLSGQMYTIMAQRYSGDVTIAPNYSLRHFRRMLANPSPEYVREMILEGERATWPKISMIRSHARISKTLERCVRRLKQQNRRAAELEHHHHHH,not soluble
16,MVKEFNTQTELSVRLEALWAVLSKDFITVVPKVLPHIVKDVQLIEGDGGVGTILIFNFLPEVSPSYQREEITEFDESSHEIGLQVIEGGYLSQGLSYYKTTFKLSEIEEDKTLVNVKISYDHDSDIEEKVTPTKTSQSTLMYLRRLERYLSNGSA,soluble
17,MVKKMVIAVRKDLDMGKGKIAAQVAHAAVTCAIRSMKINRDVFNEWYDEGQRKIVVKVNDLDEIMEIKRMADSMGIVNEIVQDRGYTQVEPGTITCIGLGPDEEEKLDKITGKYKLL,soluble
18,MVKKSYVINWARDLANRGVGVNYDGAFGSQCVDLPFWILGKFFGRPISGNAIDLLNSAKAAGYQVIYDAPGVNPRVGDIFVMHSIAYDGKDYGHTGLVIEDSDGHSIKTIEQNVDGNADNLYVGGPARYRTRSFNGIIGWIRPPYENEILENKREETDMRDFFVITNSEYTFAGVHYAKGAVLHVSPTQKRAFWVIADQENFIKQVNKNIEYVEKNASPAFLQRIVEIYQVKFEGKNVH,soluble
19,MVKSIVILIETVTMKIPAVYSDGSFKTFNDSETTAQKLVDSGVVNTFAFGPTLVENGKVAVSENEEVGQDMADNPRTAIVVNEESDRSVHYIVIVSDGRTSESSGLTLYEMAELMKSYGVMTGYNLDVGDSSTMYSLEHHHHHH,not soluble
20,MVLAERDDRLLGFASFRRTEDFAHYQPQRADAPRAYICEAVVHPAAAGQGLGSALLEAVLAQLADEGIEDVYIDRHEENLASAGMMRKAGFV,soluble
